Reference: the supplement of paper PMC9112550, “Optimization of the antimicrobial peptide Bac7 by deep mutational scanning” (BMC Biology, 2022)

What follows are sequences tested on Escherichia coli TOP10 (assay: shrunken log2 fold change of peptide-encoding DNA abundance (4.5 h post-induction vs induction); higher = less antimicrobial activity (less host growth inhibition)). Details: time post-induction: 4.5 h; library: site-saturation at positions 5, 18, 19, 20.
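Further: peptides expressed intracellularly from a pBAD plasmid library in pooled LB shake-flask culture, induced with 0.3% L-arabinose, DNA abundance read by NGS, three biological replicates, DESeq2 with apeglm shrinkage.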

| Sequence | shrunken log2 fold change |
| --- | --- |
| RRIRGRPPRLPRPRPRPAHSPRP | 0.0755 |
| RRIRDRPPRLPRPRPRPELSPRP | 1.55 |
| RRIRQRPPRLPRPRPRPRIFPRP | -0.131 |
| RRIRPRPPRLPRPRPRPFDWPRP | 0.171 |
| RRIRMRPPRLPRPRPRPPVTPRP | 0.673 |
| RRIRDRPPRLPRPRPRPGDKPRP | 0.088 |
| RRIRYRPPRLPRPRPRPDHRPRP | -0.227 |
| RRIRERPPRLPRPRPRPATSPRP | 0.0131 |
| RRIRERPPRLPRPRPRPLNWPRP | -0.373 |
| RRIRIRPPRLPRPRPRPMVYPRP | -0.136 |
| RRIRERPPRLPRPRPRPGHQPRP | -0.236 |
| RRIRHRPPRLPRPRPRPKLKPRP | -0.0873 |
| RRIRTRPPRLPRPRPRPQLQPRP | -0.0711 |
| RRIRQRPPRLPRPRPRPLGAPRP | 0.285 |
| RRIRGRPPRLPRPRPRPFWRPRP | 0.297 |
| RRIRSRPPRLPRPRPRPPWCPRP | 0.309 |
| RRIRFRPPRLPRPRPRPQDSPRP | -0.113 |
| RRIRPRPPRLPRPRPRPTILPRP | -0.104 |
| RRIRMRPPRLPRPRPRPVIYPRP | -0.0966 |
| RRIRWRPPRLPRPRPRPIEMPRP | 0.467 |
| RRIRCRPPRLPRPRPRPDNWPRP | 0.409 |
| RRIRQRPPRLPRPRPRPNWDPRP | 0.126 |
| RRIRFRPPRLPRPRPRPMIMPRP | 0.234 |
| RRIRSRPPRLPRPRPRPYAQPRP | -0.535 |
| RRIRLRPPRLPRPRPRPVLMPRP | -0.04 |

| Sequence | shrunken log2 fold change |
| --- | --- |
| RRIRDRPPRLPRPRPRPRLEPRP | 0.387 |
| RRIRSRPPRLPRPRPRPWITPRP | -0.305 |
| RRIRERPPRLPRPRPRPSQGPRP | -0.153 |
| RRIRSRPPRLPRPRPRPVEWPRP | 0.31 |
| RRIRLRPPRLPRPRPRPVPPPRP | 0.245 |
| RRIRYRPPRLPRPRPRPFFQPRP | -0.428 |
| RRIRKRPPRLPRPRPRPDEFPRP | 1.24 |
| RRIRFRPPRLPRPRPRPHFKPRP | -0.599 |
| RRIRSRPPRLPRPRPRPGFTPRP | -0.125 |
| RRIRNRPPRLPRPRPRPWDGPRP | 0.185 |
| RRIRARPPRLPRPRPRPEDTPRP | 0.625 |
| RRIRVRPPRLPRPRPRPDGTPRP | -0.161 |
| RRIRGRPPRLPRPRPRPQPLPRP | 0.45 |
| RRIRGRPPRLPRPRPRPNHSPRP | 0.195 |
| RRIRSRPPRLPRPRPRPTYVPRP | -0.098 |
| RRIRERPPRLPRPRPRPSFDPRP | -0.417 |
| RRIRIRPPRLPRPRPRPKAAPRP | 0.147 |
| RRIRKRPPRLPRPRPRPDLGPRP | 0.0986 |
| RRIRKRPPRLPRPRPRPDTPPRP | 0.546 |
| RRIRDRPPRLPRPRPRPAINPRP | -0.117 |
| RRIRTRPPRLPRPRPRPEQRPRP | -0.000852 |
| RRIRARPPRLPRPRPRPRCEPRP | 0.416 |
| RRIRNRPPRLPRPRPRPKLNPRP | -0.208 |
| RRIRDRPPRLPRPRPRPCDPPRP | 0.041 |
| RRIRTRPPRLPRPRPRPFCHPRP | 0.0326 |

| Sequence | shrunken log2 fold change |
| --- | --- |
| RRIRKRPPRLPRPRPRPRWWPRP | 0.316 |
| RRIRTRPPRLPRPRPRPCWNPRP | 0.00718 |
| RRIRKRPPRLPRPRPRPEQVPRP | 0.158 |
| RRIRSRPPRLPRPRPRPLQEPRP | 0.144 |
| RRIRDRPPRLPRPRPRPRMKPRP | 0.0166 |
| RRIRNRPPRLPRPRPRPKVHPRP | 0.0346 |
| RRIRQRPPRLPRPRPRPVQGPRP | 0.0162 |
| RRIRSRPPRLPRPRPRPQNKPRP | -0.561 |
| RRIRFRPPRLPRPRPRPNMTPRP | -0.43 |
| RRIRERPPRLPRPRPRPEIGPRP | -0.166 |
| RRIRVRPPRLPRPRPRPRYKPRP | -0.131 |
| RRIRLRPPRLPRPRPRPEHDPRP | 0.0235 |
| RRIRRRPPRLPRPRPRPTSSPRP | 0.04 |
| RRIRYRPPRLPRPRPRPGLDPRP | -0.188 |
| RRIRNRPPRLPRPRPRPVCDPRP | 0.0842 |
| RRIRQRPPRLPRPRPRPDNDPRP | -0.0011 |
| RRIRHRPPRLPRPRPRPFSRPRP | -0.0618 |
| RRIRPRPPRLPRPRPRPRDVPRP | 0.0755 |
| RRIRIRPPRLPRPRPRPRWLPRP | 0.119 |
| RRIRYRPPRLPRPRPRPETQPRP | -0.00798 |
| RRIRKRPPRLPRPRPRPKIQPRP | 0.113 |
| RRIRSRPPRLPRPRPRPPKMPRP | 0.00423 |
| RRIRARPPRLPRPRPRPKQNPRP | 0.481 |
| RRIRWRPPRLPRPRPRPKPTPRP | 0.0876 |
| RRIRCRPPRLPRPRPRPNCRPRP | -0.00263 |

| Sequence | shrunken log2 fold change |
| --- | --- |
| RRIRDRPPRLPRPRPRPVQVPRP | 0.011 |
| RRIRDRPPRLPRPRPRPSNFPRP | -0.0206 |
| RRIRQRPPRLPRPRPRPRFYPRP | -0.206 |
| RRIRYRPPRLPRPRPRPTQQPRP | -0.00797 |
| RRIRYRPPRLPRPRPRPIKKPRP | 0.017 |
| RRIRDRPPRLPRPRPRPVFTPRP | 0.076 |
| RRIRGRPPRLPRPRPRPCLAPRP | 0.599 |
| RRIRTRPPRLPRPRPRPGYAPRP | 0.111 |
| RRIRDRPPRLPRPRPRPPIQPRP | 0.242 |
| RRIRYRPPRLPRPRPRPQFMPRP | -0.074 |
| RRIRLRPPRLPRPRPRPEQSPRP | -0.0314 |
| RRIRNRPPRLPRPRPRPSIGPRP | -0.109 |
| RRIRSRPPRLPRPRPRPGYSPRP | -0.407 |
| RRIRPRPPRLPRPRPRPNRVPRP | -0.275 |
| RRIRPRPPRLPRPRPRPKKGPRP | -0.0676 |
| RRIRSRPPRLPRPRPRPVEYPRP | -0.553 |
| RRIRGRPPRLPRPRPRPVFGPRP | 0.556 |
| RRIRKRPPRLPRPRPRPCSIPRP | 0.11 |
| RRIRQRPPRLPRPRPRPDHNPRP | -0.328 |
| RRIRTRPPRLPRPRPRPRGAPRP | 0.382 |
| RRIRSRPPRLPRPRPRPYCLPRP | -0.434 |
| RRIRVRPPRLPRPRPRPLGTPRP | 0.188 |
| RRIRARPPRLPRPRPRPKCFPRP | -0.0172 |
| RRIRQRPPRLPRPRPRPDANPRP | 0.0607 |
| RRIRYRPPRLPRPRPRPGCLPRP | 1.79 |

| Sequence | shrunken log2 fold change |
| --- | --- |
| RRIRWRPPRLPRPRPRPQIQPRP | -0.0544 |
| RRIRLRPPRLPRPRPRPPPWPRP | 0.892 |
| RRIRSRPPRLPRPRPRPSFCPRP | -0.251 |
| RRIRMRPPRLPRPRPRPIQRPRP | 0.544 |
| RRIRARPPRLPRPRPRPACAPRP | 0.922 |
| RRIRQRPPRLPRPRPRPRSCPRP | 0.268 |
| RRIRMRPPRLPRPRPRPHNMPRP | -0.243 |
| RRIRQRPPRLPRPRPRPRKKPRP | -0.0181 |
| RRIRTRPPRLPRPRPRPRWGPRP | 0.164 |
| RRIRFRPPRLPRPRPRPTTMPRP | -0.0267 |
| RRIRKRPPRLPRPRPRPVQNPRP | 0.49 |
| RRIRARPPRLPRPRPRPSNRPRP | -0.457 |
| RRIRSRPPRLPRPRPRPNFTPRP | -0.0286 |
| RRIRKRPPRLPRPRPRPFMHPRP | 0.0291 |
| RRIRIRPPRLPRPRPRPCHAPRP | -0.618 |
| RRIRTRPPRLPRPRPRPGSEPRP | -0.0538 |
| RRIRGRPPRLPRPRPRPPWSPRP | 0.76 |
| RRIRYRPPRLPRPRPRPPPHPRP | 0.737 |
| RRIRERPPRLPRPRPRPQLTPRP | -0.576 |
| RRIRLRPPRLPRPRPRPHKKPRP | -0.163 |
| RRIRMRPPRLPRPRPRPNTSPRP | -0.0142 |
| RRIRVRPPRLPRPRPRPFYHPRP | -0.502 |
| RRIRFRPPRLPRPRPRPSGTPRP | -0.0628 |
| RRIRSRPPRLPRPRPRPMNCPRP | -0.0191 |
| RRIRPRPPRLPRPRPRPCHKPRP | -0.0956 |

| Sequence | shrunken log2 fold change |
| --- | --- |
| RRIRHRPPRLPRPRPRPHNAPRP | -0.809 |
| RRIRTRPPRLPRPRPRPFLPPRP | -0.279 |
| RRIRGRPPRLPRPRPRPRLGPRP | 0.799 |
| RRIRMRPPRLPRPRPRPSVFPRP | -0.0403 |
| RRIRDRPPRLPRPRPRPYCPPRP | -1.1 |
| RRIRVRPPRLPRPRPRPCPIPRP | -0.296 |
| RRIRLRPPRLPRPRPRPTEWPRP | -0.0906 |
| RRIRHRPPRLPRPRPRPNLCPRP | 0.0613 |
| RRIRSRPPRLPRPRPRPWEDPRP | -0.0124 |
| RRIRWRPPRLPRPRPRPFKHPRP | -0.405 |
| RRIRMRPPRLPRPRPRPKLQPRP | 0.273 |
| RRIRVRPPRLPRPRPRPRALPRP | 0.307 |
| RRIRGRPPRLPRPRPRPQNYPRP | -0.153 |
| RRIRYRPPRLPRPRPRPSAFPRP | -0.607 |
| RRIRKRPPRLPRPRPRPRNVPRP | 0.132 |
| RRIRNRPPRLPRPRPRPIFDPRP | -0.201 |
| RRIRGRPPRLPRPRPRPMDWPRP | 0.929 |
| RRIRGRPPRLPRPRPRPNEFPRP | 0.141 |
| RRIRIRPPRLPRPRPRPWIGPRP | -0.0616 |
| RRIRWRPPRLPRPRPRPELVPRP | 0.605 |
| RRIRNRPPRLPRPRPRPESLPRP | 0.0505 |
| RRIRFRPPRLPRPRPRPLMCPRP | -0.328 |
| RRIRKRPPRLPRPRPRPLGTPRP | 0.388 |
| RRIRLRPPRLPRPRPRPMCAPRP | 0.0321 |
| RRIRDRPPRLPRPRPRPPQCPRP | 0.243 |
